# B1: 303-25-1B4 (antibody, V domains shown)
# VH: QVQLQQPGAELVRPGASVKLSCKASGYTFTSYWMNWVKQRPGQGLEWIGMIDPSDSQTHYNQMFKDKATLTVDKSSSTAYLQLSSLTSEDSAVYYCSRGGYWGQGTTLTVSS
# VL: DIQMTQSPSSLSASLGGKVTITCKASQDINNYIAWYQHKPGKGPRQLIYYTSTLQPGIPSRFSGSGSGRDYSFTISDLEPEDIATYYCLQYDNLWTFGGGTKLEIK
# notes: Mouse monoclonal raised against cyclo(CGHDSGG)-KLH; also called clone 25
# Key:
# Test in all cases: SPR direct binding, antigen immobilized, hybridoma supernatant
# A-beta42 monomer = target: T1, A-beta42 monomer (human)
# T1 construct: also called Aβ 42 Monomer; A-beta 1-42 monomer
# Procedure: (§1) SPR Analysis All SPR measurements were performed using a Molecular Affinity Screening System (MASS-1) (Sierra Sensors GmbH, Hamburg, Germany), an analytical biosensor that employs high intensity laser light and high speed optical scanning to monitor binding interactions in real time. The primary screening of tissue culture supernatants was performed using an SPR direct binding assay, whereby BSA-conjugated peptides, A-Beta42 Monomer and A-beta42 Oligomer are covalently immobilized on individual flow cells of a High Amine Capacity (HAC) sensorchip (Sierra Sensors GmbH, Hamburg, Germany) and antibodies flowed over the surface. Protein G purified mAbs were analyzed in a secondary screen using an SPR indirect (capture) binding assay, whereby the antibodies were captured on a protein A-derivatized sensorchip (XanTec Bioanalytics GmbH, Duesseldorf, Germany) and A-Beta40 Monomer, A-beta42 Oligomer, soluble brain extracts and cerebrospinal fluid flowed over the surface. The specificity of the antibodies was verified in an SPR direct binding assay by covalently immobilizing A-Beta42 Monomer and A-beta42 Oligomer on individual flow cells of a HAC sensorchip and flowing purified mAbs.
# (§2) Clones were retested for their ability to bind cyclic peptide, linear peptide, A-beta 1-42 monomer and A-beta 1-42 oligomers prepared as described above. Binding assays were performed using SPR as described above (Direct binding assays).
# [1] = target: T2, cyclo(CGHDSGG)-conjugated-BSA (SEQ ID NO: 2) (bovine, UniProt P02769 25-607, head-to-tail cyclized (amide bond between N-terminus and C-terminus); Cys conjugated to BSA through SMCC)
# T2 construct: HDSG is A-beta residues 6-9; C, G and GG are linker residues; also called Cyclic-Peptide; cyclic peptide
# Procedure: as §1, §2
# A-beta42 oligomer = target: T3, A-beta42 oligomer (human)
# T3 construct: also called Aβ 42 Oligomer; A-beta 1-42 oligomers
# Procedure: as §1, §2
# T3 sequence (peptide, as listed by the source): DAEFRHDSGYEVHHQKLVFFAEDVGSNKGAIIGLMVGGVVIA
# T1 sequence (peptide, as listed by the source): as above
# T2 sequence (P02769 25-607 limits assumed): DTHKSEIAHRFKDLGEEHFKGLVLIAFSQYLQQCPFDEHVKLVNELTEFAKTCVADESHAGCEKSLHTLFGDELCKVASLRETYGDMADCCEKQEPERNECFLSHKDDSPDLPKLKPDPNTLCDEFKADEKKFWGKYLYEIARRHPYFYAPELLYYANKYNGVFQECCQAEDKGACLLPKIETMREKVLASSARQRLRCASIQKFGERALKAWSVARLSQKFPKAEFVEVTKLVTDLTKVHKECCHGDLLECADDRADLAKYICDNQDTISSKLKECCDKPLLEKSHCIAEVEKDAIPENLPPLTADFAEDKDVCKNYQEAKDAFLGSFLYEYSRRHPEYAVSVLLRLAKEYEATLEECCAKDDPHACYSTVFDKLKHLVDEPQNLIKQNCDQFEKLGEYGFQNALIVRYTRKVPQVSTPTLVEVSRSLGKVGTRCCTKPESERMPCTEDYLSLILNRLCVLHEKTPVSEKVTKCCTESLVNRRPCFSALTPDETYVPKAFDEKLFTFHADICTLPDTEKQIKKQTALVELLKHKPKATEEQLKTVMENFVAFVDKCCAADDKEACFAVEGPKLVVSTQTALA
binder,measurement,setting,value
B1,SPR binding response (RU),A-beta42 monomer,56.5 RU
same,SPR binding response (RU),[1],136 RU
same,SPR binding response (RU),A-beta42 oligomer,109 RU

# — patent publication US20180326086A1 (UNIVERSITY OF BRITISH COLUMBIA, published 2018)
